Biological target: ubiquitin polyprotein composed of nine identical repeats (Ubi)9 (UniProt P0CG48 1-76)
Experiment: extended unfolded state at 170 pN force (single-molecule force spectroscopy)

ubiquitin polyprotein composed of nine identical repeats (Ubi)9, sequence (P0CG48 1-684): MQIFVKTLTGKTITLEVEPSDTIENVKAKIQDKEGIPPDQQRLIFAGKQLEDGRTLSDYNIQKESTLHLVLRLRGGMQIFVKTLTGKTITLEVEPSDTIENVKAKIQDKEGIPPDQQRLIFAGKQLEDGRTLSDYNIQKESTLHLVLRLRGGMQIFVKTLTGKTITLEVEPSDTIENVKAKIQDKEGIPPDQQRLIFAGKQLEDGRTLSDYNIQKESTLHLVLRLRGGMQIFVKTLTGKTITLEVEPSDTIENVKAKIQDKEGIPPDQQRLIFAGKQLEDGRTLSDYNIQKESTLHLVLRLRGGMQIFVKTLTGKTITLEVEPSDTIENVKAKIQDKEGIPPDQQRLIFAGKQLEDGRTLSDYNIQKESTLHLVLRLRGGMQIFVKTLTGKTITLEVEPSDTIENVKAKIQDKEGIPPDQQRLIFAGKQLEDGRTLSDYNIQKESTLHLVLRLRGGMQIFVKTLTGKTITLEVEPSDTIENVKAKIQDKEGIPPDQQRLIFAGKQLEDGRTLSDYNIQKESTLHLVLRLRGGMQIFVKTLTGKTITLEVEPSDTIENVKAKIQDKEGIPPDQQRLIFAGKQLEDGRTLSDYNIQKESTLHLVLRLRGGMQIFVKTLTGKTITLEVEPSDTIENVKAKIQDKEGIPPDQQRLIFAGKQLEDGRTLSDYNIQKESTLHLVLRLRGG

- koff: 0.0458 s⁻¹
B1: DnaJ (Hsp40) (natural protein)
chain: MAKQDYYEILGVSKTAEEREIRKAYKRLAMKYHPDRNQGDKEAEAKFKEIKEAYEVLTDSQKRAAYDQYGHAAFEQGGMGGGGFGGGADFSDIFGDVFGDIFGGGRGRQRAARGADLRYNMELTLEEAVRGVTKEIRIPTLEECDVCHGSGAKPGTQPQTCPTCHGSGQVQMRQGFFAVQQTCPHCQGRGTLIKDPCNKCHGHGRVERSKTLSVKIPAGVDTGDRIRLAGEGEAGEHGAPAGDLYVQVQVKQHPIFEREGNNLYCEVPINFAMAALGGEIEVPTLDGRVKLKVPGETQTGKLFRMRGKGVKSVRGGAQGDLLCRVVVETPVGLNERQKQLLQELQESFGGPTGEHNSPRSKSFFDGVKKFFDDLTR

Source: paper PMC5817926 (2018)
